Measurements: publication PMC11960969, “Mdga2 deficiency leads to an aberrant activation of BDNF/TrkB signaling that underlies autism-relevant synaptic and behavioral changes in mice” (PLOS Biology, 2025)

Tested on: cell membrane localization in HeLa cells and mouse primary neurons
Assay: Immunostaining of membrane localization of MDGA2, ΔMAM or V930I in transfected cells
Assay type: cell-based
Details: HeLa cells transfected 24 h, S3E Fig
Description: Fig 7 The autism spectrum disorder (ASD)-associated MDGA2 V930I mutation impairs the MDGA2-TrkB interaction and MDGA2’s inhibitory effect on the tyrosine kinase B (TrkB) signaling. (A) Schematic depiction of the WT human MDGA2 and its V930I mutation constructs that are tagged with GFP. (B, C) HeLa cells (B) and mouse primary neurons (C) transfected with MDGA2 (green) or V930I (green) were immunostained with an antibody against the plasma membrane protein ATP1A1 (red) and then observed by confocal microscopy. Scale bars = 10 μm. (D) Cell surface expression of WT MDGA2 or V930I in transfected HeLa cells was determined by surface biotinylation assays. Biotinylated (cell surface) protein levels were quantified by densitometry and normalized to total protein levels for comparison (WT MDGA2 levels were set to one arbitrary unit). n = 4 experimental replicates. (E) Mouse primary neurons were transfected with MDGA2, V930I, or ΔMAM. […] Immunoprecipitated protein levels were quantified by densitometry, normalized to respective inputs, and compared to those transfected with MDGA2 (set to one arbitrary units). n = 4 experimental replicates. […] Levels of phosphorylated proteins were quantified by densitometry, normalized to respective total protein levels and compared to controls (set to one arbitrary units). n = 6 experimental replicates. […]

B1: MDGA2-ΔMAM: truncated form of MDGA2 lacking its MAM domain (protein)
chain: PPTVRIVHSGLACNIEEERYSERVYTIREGETLELTCLVTGHPRPQIRWTKTAGSASDRFQDSSVFNETLRITNIQRHQGGRYYCKAENGLGSPAIKSIRVDVYYLDDPVVTVHQSIGEAKEQFYYERTVFLRCVANSNPPVRYSWRRGQEVLLQGSDKGVEIYEPFFTQGETKILKLKNLRPQDYANYSCIASVRNVCNIPDKMVSFRLSNKTASPSIKLLVDDPIVVNPGEAITLVCVTTGGEPAPSLTWVRSFGTLPEKTVLNGGTLTIPAITSDDAGTYSCIANNNVGNPAKKSTNIIVRALKKGRFWITPDPYHKDDNIQIGREVKISCQVEAVPSEELTFSWFKNGRPLRSSERMVITQTDPDVSPGTTNLDIIDLKFTDFGTYTCVASLKGGGISDISIDVNISSSTVPPNLTVPQEKSPLVTREGDTIELQCQVTGKPKPIILWSRADKEVAMPDGSMQMESYDGTLRIVNVSREMSGMYRCQTSQYNGFNVKPREALVQLIVQYPPAVEPAFLEIRQGQDRSVTMSCRVLRAYPIRVLTYEWRLGNKLLRTGQFDSQEYTEYAVKSLSNENYGVYNCSIINEAGAGRCSFLVTGKAYAPEFYYDTYNPVWQNRHRVYSYSLQWTQMNPDAVDRIVAYRLGIRQAGQQRWWEQEIKINGNIQKGELITYNLTELIKPEAYEVRLTPLTKFGEGDSTIRVIKYSAPVNPHLREQDLATKNSVD
modifications: left off: GFP, end not stated, kept
notes: truncated form of MDGA2 lacking its MAM domain
- cell membrane localization: no effect on its cell membrane localization
